The values that follow come from paper PMC6193735, “Defining LytTR Regulatory Systems”.

For the series, the target named is T1, HdrR (Streptococcus mutans UA140, UniProt Q8DSE1 1-133).
T1 sequence: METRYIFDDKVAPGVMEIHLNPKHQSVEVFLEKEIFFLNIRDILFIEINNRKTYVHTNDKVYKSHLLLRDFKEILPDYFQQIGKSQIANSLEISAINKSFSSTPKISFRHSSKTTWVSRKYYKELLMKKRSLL
In words: EMSA; 1 ng probe, 10-30 ug HdrR as printed, 20 ul; unlabeled wild-type competitor 50 and 200 ng; EMSA: 20 ul, 25 C, 20 min; binding buffer not printed (as ref 62); oligos annealed in 50 mM Tris-HCl pH 8.0, 10 mM MgCl2, 50 mM NaCl, 1 mM EDTA. Conditions: protein: recombinant; tags: His6 (HdrR-His6, pET29b); chain copies: 2; label: 5' digoxigenin-11-ddUTP on forward strand (probe); blunt. (In general: In EMSA bound probe runs differently from free probe, usually more slowly.)

B1: hdrRMP (wild-type hdrRM operon direct repeat probe) (dsDNA)
DNA 1: TAATGGTTACCTCTTAGACATTAAAAATGACCACTTAATAGAAAAG
DNA 2: CTTTTCTATTAAGTGGTCATTTTTAATGTCTAAGAGGTAACCATTA
Turning to B1, the binding result is “binds”.
